Measured values: patent US7618977B2, “Method of treating dermatitis comprising administering a chymase inhibitor” (Asubio Pharma Co., Ltd., priority 2000, dated 2009)

B1: human chymase: recombinant human mature chymase expressed in CHO dhfr- cells, purified; serine protease of mast cells (protein, UniProt P23946 22-247, looked up)
Chymase: IIGGTECKPHSRPYMAYLEIVTSNGPSKFCGGFLIRRNFVLTAAHCAGRSITVTLGAHNITEEEDTWQKLEVIKQFRHPKYNTSTLHHDIMLLKLKEKASLTLAVGTLPFPSQFNFVPPGRMCRVAGWGRTGVLKPGSDTLQEVKLRLMDPQACSHFRDFDHNLQLCVGNPRKTKSAFKGDSGGPLLCAGVAQGIVSYGRSDAKPPAVFTRISHYRPWINQILQAN

Legend:
Human heart chymase = target: T1, Human heart chymase (Homo sapiens, UniProt P23946); experiment: Measurement of chymase inhibitory activity; assay type: biochemical; details: purified human heart chymase, substrate Suc-Ala-Ala-Pro-Phe-MCA, 30° C.
T1 construct: Human heart chymase was purified according to the method of Urata et al; from tissue; host or cells: human heart
T1 sequence (P23946 22-247): B1 Chymase
Method: Human heart chymase was purified according to the method of Urata et al. (J. Biol. Chem., 1990, 265, 22348). The inhibitory activity of the quinazoline derivatives of the present invention with respect to chymase was measured in the following manner. That is, the purified enzyme solution was diluted to a suitable concentration with 0.1M tris-hydrochloride buffer (pH=7.5), 1M sodium chloride, and 0.01% TritonX-100 to obtain an enzyme solution. A 10 mM dimethyl sulfoxide (hereinafter referred to as DMSO) solution of Suc-Ala-Ala-Pro-Phe-MCA (Peptide Institute) was diluted 20-fold at the time of use by 0.1M tris-hydrochlorate, 1M sodium chloride, and 0.01% TritonX-100 to obtain the substrate solution.
75 μl of the enzyme solution warmed to 30° C. was mixed with 5 μl of DMSO solution of the test sample. The mixture was preincubated at 30° C. for 10 minutes. Next, 20 μl of a substrate solution warmed to 30° C. was mixed with the test sample-enzyme mixture and incubated at 30° C. After 10 minutes, 50 μl of 30% acetic acid was added to stop the enzymatic reaction. The amount of the AMC produced was quantified using a fluorescent photometer. At the same time, a blind test was carried out by adding, instead of the test sample solution, 5 μl of DMSO and performing the same reaction. […]

[1] = system: human polymorphonuclear leukocytes (PMN); experiment: Human chymase-induced migration of polymorphonuclear leukocytes, 48-well chemotaxis chamber; assay type: cell-based
Method: In Example 6, it was shown that a remarkable infiltration of leukocytes is observed in late-phase reaction of human chymase-induced dermatitis. The effect of human chymase on the migration of polymorphonuclear leukocytes (PMN) in vitro was investigated for the purpose of investigating the mechanism of chymase-induced leukocyte infiltration. PMN was isolated by adding a ⅕th volume of 6% dextran solution to heparinized whole blood from normal healthy subject and allowing it to stand at 37° C. for 1 hour, then layering the supernatent on Ficoll-Paque (Amersham Pharmacia Biotech) and centrifuging it. Further, the migration of PMN was measured by using a 48-well chemotaxis chamber (NeuroProbe Co.) by the textbook method (Seibutsu Yakkagaku Jikken Koza (Biopharmacology Experiment Lectures) 12, 315, Hirokawa Shoten). That is, a medium containing human chymase (200 to 800 nM) or fMLP (N-formyl-L-methionyl-L-leucyl-L-phenylalanine, Sigma-Aldrich Co.) (10 nM) was placed in the lower well of the chamber. The upper well and the lower well were separated by a polycarbonate filter (pore size 5 μm) (NeuroProbe Co.) PMN (1×10^6/ml) was added to the upper well and cultured at 37° C. for 1 hour, then the filter was fixed, stained and the number of cells in the membrane were counted under a microscope (400×) (Seibutsu Yakkagaku Jikken Koza (Biopharmacology Experiment Lectures) 12, 315). For the cell staining, a hemacolor solution (Merck) was used. In this test, when investigating the effect of the chymase inhibitor, a chymase inhibitor (Compound 18 or Compound 34) was dissolved in dimethyl sulfoxide and added to the lower well of the chamber just before the addition of the human chymase. The concentration of the compound was adjusted so that the final concentration of the dimethyl sulfoxide became 1%.

eosinophils of the skin = experiment: Administration of human chymase to mouse ears, number of eosinophils of skin; assay type: in vivo, mice; details: p<0.01
Method: The effect of a chymase inhibitor on the infiltration of eosinophils of the skin in the test of Example 10 was studied. That is, 48 hours after the sixth application of hapten, the ears of the mice were fixed with formalin and paraffin sections prepared in accordance with an ordinary method. The sections were stained with Fast Green (Fluka), known to specifically stain eosinophils (Current Protocol in Immunology, Wiley Interscience). That is, the deparaffined sections were fixed with 100% methanol for 1 minute, then stained for 30 minutes by 0.2% Fast Green dissolved in 70% ethanol. The eosinophils were measured by randomly selecting 10 fields (×400) under a microscope and counting the number of cells per area using an ocular grid. As the chymase inhibitor, the Compound 18 and Compound 34 were used and =administered by the method described in Example 10. […] The thickness of the ear was measured by a micrometer (Digimatic Indicator, Mitsutoyo Co.) immediately before each administration of chymase and 1 hour, 6 hours, 24 hours, and 48 hours after the administration to find the increase from the ear thickness before the first administration of chymase. […] The number of eosinophils of the skin was measured by the method described in Example 11. […]

| IC50 (Human heart chymase) [nM] | migration-promoting activity relative to fMLP ([1]; 200 to 400 nM chymase equals 10 nM fMLP) | concentration at which promotion of human PMN migration is statistically significant ([1]; chymase 200 to 800 nM in lower well, p<0.05 Dunnett's test) [nM] | increase in number of eosinophils compared with ear administered saline (eosinophils of the skin; 24 hours after single intradermal administration of 2.0 μg) | increase in number of eosinophils compared with group administered saline (eosinophils of the skin; administered at 1 week intervals four times in total, 1 week after administration) | Molecule |
| --- | --- | --- | --- | --- | --- |
| 300 | – | – | – | – | CC(C(=O)O)C(=O)Nc1cccc(S(=O)(=O)n2c(=O)[nH]c3cc(Cl)ccc3c2=O)c1 (centres unmarked) [Compound 13, 2-{3-[(7-chloro-2,4(1H, 3H) -quinazolinedion-3-yl)sulfonyl]phenylaminocarbonyl}propionic Acid] |
| – | about 1/30 | ≥ 400 | approximately 7.6 fold | about 21 fold | B1 |
